Reference: article PMC2686699, “The interaction between the measles virus nucleoprotein and the Interferon Regulator Factor 3 relies on a specific cellular environment” (Virology Journal, 2009)

Biological target: the molecule itself
Experiment: SEC-MALS; data not shown; purified IRF-3 RD in various buffers, including 10 mM sodium phosphate pH 7 or buffer A (50 mM sodium phosphate pH 8, 300 mM NaCl, 10 mM imidazole); the method is told only in general (SEC-MALS in various buffers)

B1: IRF-3 RD (regulatory domain of IRF-3, residues 175-427, N-terminal hexahistidine tag; IRF-3 RDHN) (domain or fragment, human, UniProt Q14653 175-427, looked up)
chain: SLDNPTPFPNLGPSENPLKRLLVPGEEWEFEVTAFYRGRQVFQQTISCPEGLRLVGSEVGDRTLPGWPVTLPDPGMSLTDRGVMSYVRHVLSCLGGGLALWRAGQWLWAQRLGHCHTYWAVSEELLPNSGHGPDGEVPKDKEGGVFDLGPFIVDLITFTEGSGRSPRYALWFCVGESWPQDQPWTKRLVMVKVVPTCLRALVEMARVGGASSLENTVDLHISNSHPLSLTSDQYKAYLQDLVEGMDFQGPGES
notes: Human IRF-3, regulatory domain, residues 175-427; Dimer or monomer according to the buffer (monomer in buffers C and D); Also made uniformly 15N-labelled for NMR; source: E. coli Rosetta [DE3], purified (Talon IMAC, Hi-Trap Q, Superdex 200); not shown: His6, N-terminal, kept
  stoichiometry N: 2
